The values that follow are results of earlier work, collected in publication PMC7925366.

“And” between values parts separate entries of the source, which are not always exact repeats. Equal values may be shown once. Read-outs that look alike come from different tables or passages of the source.

Series [1] has as its target vimentin coils 1A and 1B (Homo sapiens) (UniProt P08670). As to the kind of experiment: MST.
For series [2] the target is unchanged.

UniProt P08670, sequence (P08670 96-245): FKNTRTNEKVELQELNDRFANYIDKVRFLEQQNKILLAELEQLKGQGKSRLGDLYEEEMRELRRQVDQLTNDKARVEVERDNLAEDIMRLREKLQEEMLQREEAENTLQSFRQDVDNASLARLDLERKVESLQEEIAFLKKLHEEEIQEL

For the substance “periplakin linker domain (from UniProt O60437)”, the Kd – broadly, the concentration at which binding is half-saturated – in series [1] is 31 µM and 70 µM. With envoplakin PRD (from UniProt Q92817), the Kd in series [2] is 19 µM.
